Experimental data: the DeepSol protein solubility set

Assay: soluble on expression in E. coli; label from the status in PepcDB or PDB records

| Sequence | soluble on expression in E. coli |
| --- | --- |
| MGSDKIHHHHHHMKIRLTQLQCSSSSVTVDINDWVIEPQQSWGVFSTEGDVGALLGQLLTQQIDAQTLTYSGDIIGVTPASVALVSLLEQQSLLEAILEQDDSESLGYTDPKTTVFGVVFNQCHDNDLTHQLLQQLDLTHLSLSPFAQLSTGEGRRVMLARAVATQVPFLVLDEPYAGLDVAHRQTLTEYLQQLSQTKQILVVVSREEDMPDWIEHVAMFSHGKLDTMMTKSQWDNHPVIAQLTAQAGQQSDDILALIRRHRHKPLFANPVFQLNNGRVAYSDKVIFSGVNWRIDNGVHWQVKGPNGCGKSTLLGLIFGDHPQCYSNDIDIFGNKRGSGESIWEIKKHIGMVSSALHLQYRVNCSALDVIVSGFYDSIGLYQKPTAQQISVATEWLAILHMGHLSKTAFRQLEYGQQRLLLIARAIVKQPTLLILDEPYQGLDYLGRRLIKNALELIAKEHLSQLLYVSHYQEDSLDSIQHYIEFVKDENQDGYRAVVSQG | not soluble |
| MYDVAIIGAGVIGCSIFRELTKYDLRVVVLEKEKDVSMGTSKANSAIVHAGYDPEEGTLMAKYNVKGNEMFEELCKELSVPFKRNGSLVLAFDKEDMFKVKHLYENGSKLGVKGLKILNRDEVLKMEPNLNDKIEGALYAPTGGIVGPFEYTIALAENGVTNGGKIKLKKEVVSIKKRDVFKIGTEDGETIEAKFVINAAGVYADKIHNLVCKESFKISPRSGEYFVMDKSQGNVVKHTIFQCPSKLGKGVLITPTVHGNLLVGPDARDVEDKEDVGTVFEGLDYVKEASMRSTKEVNFRESIRNFAGLRANPDTGDFIVEENDEVKGFIDVAGMKSPGLSSAPAIAVDVVNILSSAGCSLKK | not soluble |
| MNVETIREYCLSKKGVTESFPFDDVSLVMKVLDKMFALIDLEGANSISLKCDPERAIELREHYAGIEGAYHFNKKYWNGVYFDRDVDDKLIKELVDHSYEEVIKKFTKKLRAEYDALP | not soluble |
| MWPDNRIARDAHYLYRYDRHGRLTEKTDLIPEGVIRTDDERTHRYHYDSQHRLVHYTRTQYAEPLVESRYLYDPLGRRVAKRVWRRERDLTGWMSLSRKPQVTWYGWDGDRLTTIQNDRTRIQTIYQPGSFTPLIRVETATGELAKTQRRSLADTLQQSGGEDGGSVVFPPVLVQMLDRLESEILADRVSEESRRWLASCGLTVEQMQNQMDPVYTPARKIHLYHCDHRGLPLALVSTEGATEWCAEYDEWGNLLNEENPHQLQQLIRLPGQQYDEESGLYYNRHRYYDPLQGRYITQDPIGLKGGWNFYQYPLNPVQYIDSMGLASKYGHLNNGGYGARPNKPPTPDPSKLPDIAKQLRLPYPIDQASSAPNVFKTFFRALSPYDYTLYCRKWVKPNLTCTPQDDSQYPGMDTKTASDYLPQTNWPTTQLPPGYTCAEPYLFPDINKPDGPATAGIDDLGEILAKMKQRTSRGIRKLEHHHHHH | not soluble |
| MRLALFDLDNTLLGGDSDHAWGDYLYQRGILDAATYKSRNDEFYQDYLAGTLNMTDYLNFTLEILGNTDMAQLQEWHREFMRDCIEPIMLPKALELIAKHREAGDKLVVITATNRFVTAPIVARLGIETLLATECEMVDGRYTGRTTGVPCFREGKVTRLNQWLEDNAFSLEDSYFYSDSMNDLPLLEQVANPVAVDPDARLRAEAEQRGWPVITLRS | not soluble |
| MKSIRSRKSRRLRANRRKKRVHQPKLRQKPAKASQSRSRRMSRTDYISENVYIVLVYPKYQGNIGAVARSMWNSGLRHLIIIGNRPDDEAFARSMGGRFILENAEIYDDFASVISRFNVIAATSSTASSNEKHFRRLPLTPEKFWEEMSDQGGKIALVFGREDDGLRNEEIEKCNYFINIPGNPEYPVYNLSHAVAIILYVMFTRFNPPENIEIRAIEPDHEDLMLRNIIEVMRLTSYPEHKIRNTELLLRRLIARSRMSDREYFRMMGVIRRVKESLQRPLENESDHQRN | not soluble |
| SLPKLHMFYLGGNAGRSNIEVHDIQFAVCDDYREAVPALKAAWFGDADKIHIDGWQVVEWADGYDIAVSETPKTKMPSENAPRLYFANVGGYRAGQLAEAHAFGLFAAATPAEAKQKALQTLLTDSYVQQHKDNLKDVDNLLALDRIGNFHIRLTPNPHGKPAEIGFQGYLPI | soluble |
| MRTFCILKDFKIFIIFFLQNPCGGEGLNILERIAKEVQEETKVRLHARNVERVLQALLKTGDFWKIVDYSDLPVPAASGIIKKFLDEGIVFIDENENILFTQKGLDLVKELGIEPFEEHKCRACEGRGIPFYDDKELYRTFVEIAKDRPKPVQQYDQGSVTPETTVSRVLFLDSRGDLRGKEIIVMGAEDDLTGLAIALTRKAKRVLIIDIDERLIDFDNRIIKELGIDNAEAMVWDLRNPYTEDFLGKFDVFITDPPETFAAFRAFIGRGIATLKDAGCAGYFGLTLRDSSIFRWKEFQEILINEYGVVITDIIQDFNDYMNWEYHPETRAAQIAPVKKNPTDIWYRSAWYRIETLPGFKRWNEPISDEVFYLDEEGSTT | not soluble |
| MFIDTLIEKIREKDNPSVVGLDPKIEYVPSFIKEDMYKKYGKNLKAVAEAILLFNKYIIDAVYDIVPAVKPQLAYYEMYGLEGMRVFYETCKYAKEKGLLVIADGKRNDIGSTAQCYSAAYLGKTDIDEGISEAVFDVDALTVNPYLGVDGIKPFIDDCVKYNKGIFVLVKTSNKSSGEIQDILTQEGRSIYEIVAEYVESWGENKKGKYGYSCVGAVVGATYPNLAKILRKILKNSYILVPGYGAQGGTARDVAHCFNYDGLGAIVNASRSIMCAYKSEQWKNVYSEEKFYEASRAEAIRMRDDINSALRDRK | not soluble |
| MHHHHHHGSACFAKGTNVLMADGSIECIENIEVGNKVMGKDGRPREVIKLPRGSETMYSVVQKSQHRAHKSDSSREMPELLKFTCNATHELVVRTPRSVRRLSRTIKGVEYFEVITFEMGQKKAPDGRIVELVKEVSKSYPVSEGPERANELVESYRKASNKAYFEWTIEARDLSLLGSHVRKATYQTYAPIGAAFARECRGFYFELQELKEDDYYGITLSDDSDHQFLLANQVVVH | soluble |
| MNRLSIFVDGNNMFYAQQKNGWFFDPRRVLEYFKHEQSETTLINAFWYTGLKDPQDQRGFRDALISLGYTVRTKILKEYYDDTSGRYSQKANLDIEIVVDMFNTVDQYDRVVLFSGDGDFERAIELLRSKNTHITVVSTEGMIARELRNATDRYIDLNDIRDQIEKT | not soluble |
| MGSDKIHHHHHHMFNLTKAFLKEVPTNAEVTDFHEVHGGDINKAYSLTDAQGGRYFLKVQPNSVLAFFQHEADGLKLLGQAARVPKVIALGHVGQDQWLLLEYLNATNYGNQYSLGQDLAKIHSITSPNGQFGFDKDFKAGKTSKINTWQSSWYEFFVKQRLNVLRELLINEGKWNDDQNYKKAIEIFQSLMEKHDSRPSLLHGDFWSGNFMFDADSGQPIFIDPDVYYGDPEFDIGITTVFGGFNQDFYVGYQSTKPFQSGAERRLMFYQLYYLMVHAHLFAGSYIQAYRGKLAQIIQQ | not soluble |
| MTTYTFDQVEEAIEQLYPDFTINTIEISGEGNDCIAYEINGNFIFKFPKHSRASINLLNEVTVLKTIHNELSLPIPEVVFTGMPSEMCQMSFAGFTKIKGVPLTPLLLKNLPKQSQDQAAKDLARFLSELHSINISGFKSNLVLDFREKINEDNKKIKKLLSRELKGHQMKKVDDFYRDILDNEIYFKYYPCLIHNDFSSDHILFDTEKNTICGIIDFGDAAISDPDNDFISLMEDDEEYGMEFVSKILNHYKHKDIPTVLEKYMMKEKYWSFEKIIYGKEYGYMDWYEEGLNEIRSIKIK | soluble |
| MGSDKIHHHHHHVQHDQAPEVYSDLIQMVWALFTPSTVNFFSKGLCANAPFIMEMVDFEALKTVEEDVYLNAYNLTDHKMAIFGKDILDYEHFGATLAYPFIYPPAKVDGKLYLEGAAEDAFNFQGLLEHDEGIRTVVVFDAFGNEGYIQDPPNLWQAWGQNLILPLISLTRHDLAFFEHMLDDWNESHPARQDVELIKVTFPIPPEWLPTALDWSRSNLERMFELGYETGKKFVAEKGVRLGATLPPKPTPAKGRGGAAKKDDDAMFGGASIG | not soluble |
